This data set deals with the molecule itself. As to the kind of experiment: size exclusion chromatography. In general terms: In gel filtration, larger molecules generally elute earlier.

B1: eIF2Bα (protein)
chain: MDDKELIEYFKSQMKEDPDMASAVAAIRTLLEFLKRDKGETIQGLRANLTSAIETLCGVDSSVAVSSGGELFLRFISLASLEYSDYSKCKKIMIERGELFLRRISLSRNKIADLCHTFIKDGATILTHAYSRVVLRVLEAAVAAKKRFSVYVTESQPDLSGKKMAKALCHLNVPVTVVLDAAVGYIMEKADLVIVGAEGVVENGGIINKIGTNQMAVCAKAQNKPFYVVAESFKFVRLFPLNQQDVPDKFKYKADTLKVAQTGQDLKEEHPWVDYTAPSLITLLFTDLGVLTPSAVSDELIKLYL
Broadly, the Kd is the concentration at which binding is half-saturated. Lower therefore signals tighter binding. For B1, the Kd is less than 1 nM.
